“Also recorded” adds a separate entry of the source.
B1: 238D2: monovalent anti CXCR4 Nanobody, SEQ ID NO: 2 (protein)
VHH: EVQLVESGGGLVQTGGSLRLSCAASGFTFSSYAMSWVRQAPGKGLEWVSGIKSSGDSTRYAGSVKGRFTISRDNAKNMLYLQMYSLKPEDTAVYYCAKSRVSRTGLYTYDNRGQGTQVTVSS
modifications: Nanobody
B2: Nanobody 238D4 (VHH)
VHH: EVQLMESGGGLVQAGGSLRLSCAASGRTFNNYAMGWFRRAPGKEREFVAAITRSGVRSGVSAIYGDSVKDRFTISRDNAKNTLYLQMNSLKPEDTAVYTCAASAIGSGALRRFEYDYSGQGTQVTVSS

Assays:
[1] = biological target: T1, CXCR4 (N119A) (Homo sapiens, UniProt P61073, N119A); assay: Competition binding with [125I]-CXCL12 on constitutively active CXCR4 mutant N119A; settings: competition with [125I]-CXCL12 (40 pM)
T1 construct: expressed in transfected cells; host or cells: HEK293T, transient; membranes in A4, whole cells in A5
Method: Competition binding assay—Periplasmic fractions were screened in a competition binding assay using membranes from HEK293T cells transiently expressing CXCR4. In short, periplasmic extracts (1:10) or ligands were pre-incubated with membranes in binding buffer (50 mM HEPES (pH 7.4), 1 mM CaCl2, 5 mM MgCl2, 100 mM NaCl, 0.5% bovine serum albumin) supplemented with 0.5% BSA for 1 h at 22° C. before the addition of [^125I]-CXCL12 (40 pM) or [^125I]-238D2 (3 nM) or [^125I]-238D4 (3 nM) for additional 2 h at 22° C. […] Membranes were then harvested over polyethylenimine (0.5%)-treated Whatman GF/C filter plates and washed three times with ice cold binding buffer containing 500 mM NaCl. Plates were counted by liquid scintillation.
CXCR4—specific Nanobodies behave as neutral antagonists or inverse agonists on constitutively active mutants of CXCR4—The CXCR4—specific monovalent Nanobodies 238D2 and 238D4 as well as their bivalent fusion products L3 and L8 were investigated on the constitutively active CXCR4 mutant N119A (equivalent to N3.35A in the Ballestros-Weinstein numbering of class A GPCRs). […] Despite of the large number of CAMs for other class A GPCRs and further efforts to generate additional CAMs for CXCR4 (Berchiche et al., 2007), the N119 mutants of CXCR4 remain the only known CAMs for this receptor. […] Methods: Preparation of membranes and competition binding experiments with [125I]-CXCL12 (40 pM) were performed as described before for wild type CXCR4 (vide supra).

[2] = biological target: T2, wildtype human CXCR4 (pcDNA3.1-CXCR4, expressed in HEK293T) (human, UniProt P61073 1-352); assay: competition with [125I]-238D2, HEK293T-CXCR4 membranes
T2 construct: whole, on cells; also called hCXCR4; HEK293T CXCR4

[3] = biological target: T2, wildtype human CXCR4 (pcDNA3.1-CXCR4, …); assay: competition with [125I]-CXCL12, HEK293T-CXCR4 membranes

T1 sequence (P61073 whole entry N119A): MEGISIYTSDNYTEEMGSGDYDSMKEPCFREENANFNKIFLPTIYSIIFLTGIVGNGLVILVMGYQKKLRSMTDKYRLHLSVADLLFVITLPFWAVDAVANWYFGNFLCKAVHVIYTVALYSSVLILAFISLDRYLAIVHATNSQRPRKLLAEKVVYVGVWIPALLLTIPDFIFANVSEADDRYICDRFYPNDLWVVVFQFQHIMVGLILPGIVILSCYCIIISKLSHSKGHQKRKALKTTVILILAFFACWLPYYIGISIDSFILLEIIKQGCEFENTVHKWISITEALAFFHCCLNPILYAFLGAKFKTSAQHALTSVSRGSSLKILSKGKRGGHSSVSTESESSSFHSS
T2 sequence (P61073 whole entry): as the sequence (P61073 whole entry N119A) above, with A119N counted along it

| Molecule | binding affinities to CXCR4 (N119A) compared to wild type (in words) [1] | binding to CXCR4 (N119A) (in words) ([1]; highest nanobody test concentration 2 μM) | pKi [2] | pKi [3] |
| --- | --- | --- | --- | --- |
| B1 | somewhat less compared to the wild type receptor | able to bind to CXCR4 (N119A); also recorded: clearly bind to the mutant receptor | – | – |
| B2 | – | – | 8.8 pKi | 8.22 pKi |
